From patent US20190241619A1

Molecular target: HLA-A1 (human)
Assay: experimental peptide-HLA binding affinity; method not described

Binder	Binding affinity
DLQPETTDLY (modifications not checked) [HPV16 E7/14-23 peptide …]	1.62 µM
ETTDLYCY (modifications not checked) [HPV16 E7/18-25 peptide ETTDLYCY]	11.5 µM

Molecular target: HLA-A2 (human)
Assay: as above

Binder	Binding affinity
YMLDLQPETT (modifications not checked) [HPV16 E7/11-20 peptide …]	2.19 µM
MLDLQPET (modifications not checked) [HPV16 E7/12-19 peptide MLDLQPET]	53.7 µM
YMLDLQPE (modifications not checked) [HPV16 E7/11-18 peptide YMLDLQPE]	8.07 µM
YMLDLQPETTD (modifications not checked) [HPV16 E7/11-21 peptide …]	2.37 µM
MLDLQPETT (modifications not checked) [HPV16 E7/12-20 peptide …]	3.6 µM
